From patent publication US8440629B2, “Cyclic receptor-associated protein (RAP) peptides” (Raptor Pharmaceuticals Inc., priority 2007, dated 2013)

How the values were obtained:
LRP2 CR34-36 = target: T1, LRP2 CR34-36 (Homo sapiens, UniProt P98164); experiment: Solid phase binding assay; conditions: highest ligand concentrations tested
T1 construct: a CR triplet from LRP2 (CR34-36); made in house; host or cells: E. coli BL21(DE3) CodonPlus-RIPL, pET30(+)a
Procedure: (§1) All expression constructs were sequenced to verify insert sequences and the junctions with the expression vector. Each plasmid was then used to transform BL21(DE3) CodonPlus-RIPL™ cells (Stratagene). Expression of the CR proteins was induced in logarithmic growth-phase cells grown in LB supplemented with 34 μg/mL chloramphenicol, 12.5 μg/mL tetracycline and 15 μg/mL kanamycin by addition of 2 mM IPTG, followed by reduction in incubator temperature to 32° C. and incubation for 4 hours with agitation at […]. Cells were pelleted and resuspended, at 3.5% of the initial culture volume in 10 mM Tris-HCl pH 8, 100 mM NaH2PO4, 8M Urea. Resuspended cells were then frozen in liquid nitrogen, rapidly thawed to 37° C. and sonicated for 10 seconds at an amplitude setting of 60 using a Cole-Parmer CP-130 ultrasonic processor connected to a 3 mm probe. This procedure was repeated three times to effect complete lysis of the cells. Lysates were clarified by spinning twice at 10,000×g in a Sorvall RC-5 centrifuge for 20 minutes at 15° C. Ni-NTA columns (Qiagen Superflow™, 1.5 mL packed bed) were used to purify the CR proteins. Briefly, the resin was equilibrated with two column volumes of lysis buffer. The clarified lysate was then supplemented to 20 mM with imidazole and incubated with the equilibrated Ni-NTA resin overnight at 4° C. The flow-through was discarded. Columns were washed once with one column volume of lysis buffer and then three times with one column volume of TBS pH 8 supplemented with 20 mM imidazole. CR-loaded beads were then removed from the column and CR proteins eluted by incubating at room temperature for 30 minutes with one column volume of the same buffer containing 200 mM imidazole. This step was repeated once and the eluates pooled. Eluted CR protein solutions were then supplemented to 2 M urea, 10 mM CaCl2 and 5 mM DTT. Purified, denatured CR protein solutions were transferred to 3,500 MWCO Slide-A-Lyzer™ (Pierce) cassettes and sequentially dialyzed against a 200-fold excess of 50 mM Tris-HCl pH 8.5, 10 mM CaCl2, 1 mM reduced glutathione, 0.5 mM oxidized glutathione at room temperature overnight and then against TBS supplemented with 5 mM CaCl2 at 4° C. overnight. Protein concentrations were determined by Bradford assay and purity confirmed by SDS-PAGE with Coomassie Brilliant Blue staining.
(§2) Purified, refolded CR protein (1 μg) was bound to Nunc Maxisorp™ 96-well plates in TBS pH 8 supplemented with 5 mM CaCl2 (TBSC) overnight at 4° C. Wells were washed with TBSC and then blocked with TBSC containing 2% bovine serum albumin (BSA). RAP ligands were then incubated with the immobilized receptor at a range of concentrations for 2 hours in the above blocking buffer supplemented with 0.05% Tween-20 at room temperature. Control wells contained no added ligand. As an additional control, to determine whether the absence of calcium affected binding, 10 mM EGTA was included in the incubation medium for some samples. Wells were washed with TBSTC and bound ligands detected with polyclonal anti-RAP (BP41/42, 1:1,000, BioMarin). Excess primary antibody was removed and wells washed before incubation with the secondary antibody, HRP-conjugated goat anti rabbit IgG (Bio-Rad). After washing, TMB substrate solutions (Bio-Rad) were added to detect HRP. Color development was stopped with 1N HCl. Absorption at 450 nm was measured with a microplate spectrophotometer (Molecular Devices). Data were plotted and Kd values derived by non-linear regression with the assumption of single-site binding (GraphPad Prism).

LRP2 CR3536 = target: T2, LRP2 CR3536 (Homo sapiens, UniProt P98164); experiment: Solid phase binding assay; conditions: highest ligand concentrations tested
T2 construct: VLDLR CR78, LRP2 CR3536, LRP2 CR34-36 and MAT CR23; made in house; host or cells: E. coli BL21(DE3) CodonPlus-RIPL, pET30(+)a
Procedure: as §1, §2

LRP1 CR3-5 = target: T3, LRP1 CR3-5 (Homo sapiens, UniProt Q07954); experiment: Solid phase binding assay
T3 construct: made in house; host or cells: E. coli BL21(DE3) CodonPlus-RIPL, pET30(+)a
Procedure: as §1, §2
From the large number of CR pairs with unique combinations of amino acids at A, C, A′ and C′ within the calcium-binding loop of each CR, CR pairs or triplets were selected to test their binding to RAP d3 (FIG. 2). An additional pair derived from the FDC-8D6 protein was tested, designated 8D6 CR12, having the sequence ([…]) (SEQ ID NO: 91). […]

[1] = target: T4, LRP2 CR89 Y1042W V1047D R1088D (WDWD) (Homo sapiens, UniProt P98164, R1089D/V1048D/Y1043W); experiment: Solid phase binding assay, LRP2 CR89 mutant
T4 construct: two CR pairs from LRP2 (CR89, CR3435); made in house; host or cells: E. coli BL21(DE3) CodonPlus-RIPL, pET30(+)a
T4 sequence (P98164 1022-1105 Y1043W/V1048D/R1089D): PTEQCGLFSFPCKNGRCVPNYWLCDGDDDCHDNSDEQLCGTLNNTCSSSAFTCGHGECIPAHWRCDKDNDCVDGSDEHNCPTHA
Source text: Each amplified fragment was sequentially digested with BamHI and HindIII and then ligated into similarly digested pET30(+)a. The resulting plasmids encode proteins consisting of N-terminal hexahistidine and S-peptides fused to the CR fragment. Ligation reactions were transformed into XL-Blue MRF′ (Stratagene) by electroporation and plasmids isolated from single colonies. Three mutations, […], V1047D and R1088D, were introduced into the LRP2 CR89 expression plasmid both singly and in combination using Stratagene QuikChange II XL reagents and the primers: […]
as §2
One premise of this work was that amino acids at A, C, A′ and C′ within the calcium-binding loops of a CR pair were key determinants of binding affinity for RAP and would be similarly important for binding of RAP variants. To test this idea, mutant LRP2 CR89 were prepared in which the native, non-canonical residues at these positions were sequentially substituted with the non-native, canonical residues. As defined above, the A, C, A′, C′ string for LRP2 CR89 is YVWR. Mutants included LRP2 CR89 Y1042W (WVWR), LRP2 CR89 V1047D (YDWR), LRP2 CR89 R1088D (YVWD), LRP2 CR89 V1047D R1088D (YDWD), LRP2 CR89 Y1042W V1047D R1088D (WDWD), LRP2 CR89 Y1042W V1047D (WDWR), LRP2 CR89 Y1042W R1088D (WVWD). Binding to both RAP d3 and MegaRAP1 d3 were measured for each LRP2 CR89 mutant by solid-phase assay. Only the YVWD mutant retained significant binding to MegaRAP1 d3, with an approximate 2-fold loss of affinity relative to LRP2 CR89 (FIG. 6 and Table 3). […] The A′ position in LRP2 CR89 is a tryptophan, the canonical residue for wild-type RAP d3 binding, and was not mutated in our studies.

T3 sequence (Q07954 852-973): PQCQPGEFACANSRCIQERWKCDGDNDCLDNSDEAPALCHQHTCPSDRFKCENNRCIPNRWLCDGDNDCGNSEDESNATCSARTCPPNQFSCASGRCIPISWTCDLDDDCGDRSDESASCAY
T2 sequence (P98164 3880-3974 limits assumed): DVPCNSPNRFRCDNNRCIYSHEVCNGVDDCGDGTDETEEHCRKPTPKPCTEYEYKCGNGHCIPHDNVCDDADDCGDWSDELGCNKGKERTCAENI
T1 sequence (P98164 3838-3974 limits assumed): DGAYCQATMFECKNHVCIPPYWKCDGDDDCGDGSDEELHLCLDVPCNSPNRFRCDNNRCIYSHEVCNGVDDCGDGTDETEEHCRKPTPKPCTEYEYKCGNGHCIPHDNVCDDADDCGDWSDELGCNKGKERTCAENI

Molecule	binding relative to that for LRP1 CR3-5 (LRP2 CR34-36)	binding relative to that for LRP1 CR3-5 (LRP2 CR3536)	binding at 80 nM (in words) (LRP1 CR3-5; 80 nM ligand, FIG. 7)	binding (in words) [1]	binding to LRP1 CR3-5 (in words) (LRP1 CR3-5; solid-phase assay)
RAP d3: third domain of human RAP, amino acids 201-319 of mature RAP, bacterially expressed with hexahistidine and S-peptide tags (SEQ ID NO: 92) (protein, listed as Homo sapiens, hexahistidine and S-peptide tags) LDRLRRVSHQGYSTEAEFEEPRVIDLWDLEQSANLTDKELEAFREELKHFEAKIEKHNHYQKQLEIAHEKLRHAESVGDGERVSRSREKHALLEGRTKELGYTVKKHLQDLSGRISRAR	less than 5%	less than 5%	only bound to LRP1 CR3-5	small increase in binding	–
MegaRAP1 d3: d3 of RAP variant selected on LRP2 CR89: S213T, E217K, H249Y, E251K, K256A, K270E (SEQ ID NO: 93) (protein, listed as Homo sapiens) LDRLRRVSHQGYSTEAEFEEPRVIDLWDLEQSANLTDKELEAFREELKHFKAKIEAHNHYQKQLEIAHEDLRHAESVGDGERVSRSREKHALLEGRTKELGYTVKKHLQDLSGRISRAR	–	–	–	failed to bind measurably	no significant affinity
